Laboratory results from the supplement of paper PMC10724198.
± gives the standard deviation of the averaged measurements.

Test system: Saccharomyces cerevisiae
Assay: protein stability index of tFT-peptide fusion (C-terminal peptide) (PSI (0-1 scale)); higher = more stable (slower turnover)
Conditions: genetic background: wild type; temperature: 30 C
Protocol: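 Multiplexed protein stability (MPS) profiling in S. cerevisiae. Random 12-aa peptides (tFT-X12 library) are fused to the C-terminus of a sfGFP-mCherry tandem fluorescent timer, after mCherry and a GGGS linker. Cells are FACS-sorted into 8 mCherry/sfGFP bins and deep-sequenced. The protein stability index (PSI) is the read-weighted bin average, scaled from 0 (unstable) to 1 (stable). Only peptides with >10 reads are reported; cells were grown at 30 °C in SC-His with glucose.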
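Note: PSI is a weighted mean of sequencing reads over stability bins, variants kept only with over 10 reads, mCherry proximal and sfGFP distal, peptide attached via GGGS linker.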

| Sequence | protein stability index |
| --- | --- |
| EVDGISTRAAVC | 0.63 ± 0.083 |
| EVDKKYRNRKRK | 0.744 ± 0.019 |
| EVFVVHLLGEAS | 0.574 ± 0.064 |
| EVGGGVGGRRLM | 0.636 ± 0.0099 |
| EVGGSVGTIVGS | 0.702 ± 0.11 |
| EVLAVKLYSGIA | 0.648 ± 0.044 |
| EVLQGNHHPRPE | 0.716 ± 0.019 |
| EVSGRCRRPDDQ | 0.679 ± 0.041 |
| EVVCLGKTTLKR | 0.692 ± 0.041 |
| EVVRWGCVDLWI | 0.717 ± 0.051 |
| EWACGRAGLKVV | 0.491 ± 0.018 |
| EYCIYYTQFGSF | 0.65 ± 0.1 |
| EYEDNRLDQHKV | 0.725 ± 0.04 |
| FAFVCLASILGS | 0.5313 ± 0.0017 |
| FAPAWQTRLGCP | 0.7514 ± 0.0026 |
| FAPPASPPARPP | 0.672 ± 0.016 |
| FAVLGGGVGGGW | 0.7077 ± 0.0032 |
| FCALWASFFGVS | 0.715 ± 0.048 |
| FCCFGGSFFSLR | 0.715 ± 0.02 |
| FCCSYLSRGDFL | 0.702 ± 0.023 |
| FCDFSPPARSFP | 0.76 ± 0.072 |
| FCGDFGGAYGLW | 0.706 ± 0.047 |
| FCGFTSLCVGDL | 0.731 ± 0.039 |
| FCLGMRKHSSPL | 0.731 ± 0.02 |
| FCVFFSGLCCWV | 0.55 ± 0.022 |
| FCWCARPLSWYN | 0.615 ± 0.027 |

| Sequence | protein stability index |
| --- | --- |
| FDACPAPFGLVV | 0.67033 ± 0.0004 |
| FDRAVRPSCLLL | 0.6892 ± 0.0062 |
| FEDWMQGLGKWV | 0.792 ± 0.054 |
| FELTLLSPVCFS | 0.579 ± 0.0089 |
| FESTCSGLLYNS | 0.694 ± 0.039 |
| FFAGASRFSSWS | 0.752 ± 0.029 |
| FFCLWFLSFLRF | 0.572 ± 0.01 |
| FFFLPILKSPSR | 0.714 ± 0.058 |
| FFGNGSGPWVLV | 0.6597 ± 0.0018 |
| FFGWYFCFSGVS | 0.598 ± 0.023 |
| FFIGFGGVAGGG | 0.695 ± 0.01 |
| FFLGGGVGLVLV | 0.528 ± 0.053 |
| FFLPLAYSSGSN | 0.659 ± 0.043 |
| FFLPSLFSVLSF | 0.53 ± 0.04 |
| FFLRLCTPPYFH | 0.651 ± 0.0097 |
| FFPITAWSGWDG | 0.669 ± 0.093 |
| FFPPAPLTSLLP | 0.697 ± 0.057 |
| FFPPFLFSLFRT | 0.5621 ± 0.0007 |
| FFQSSLLFCPWR | 0.712 ± 0.011 |
| FFRWDSKHDILV | 0.732 ± 0.064 |
| FFRYWLRWGWGV | 0.695 ± 0.039 |
| FFSFVVPCFFFC | 0.513 ± 0.022 |
| FFSSSLMRLGCF | 0.6343 ± 0.00098 |
| FFSWFGCSCYAR | 0.779 ± 0.023 |
| FFTVRLRGGRDC | 0.649 ± 0.024 |
| FFVGAGATEGLG | 0.735 ± 0.021 |

| Sequence | protein stability index |
| --- | --- |
| FFVGAGVTEGLG | 0.692 ± 0.033 |
| FGFGYAVSFLVG | 0.6 ± 0.081 |
| FGPDFCVRSHLS | 0.719 ± 0.03 |
| FGRGLCPHRLWI | 0.74 ± 0.039 |
| FGRSHPFWVVDV | 0.697 ± 0.025 |
| FGSRTFVTIAAG | 0.57 ± 0.056 |
| FGVSLWPGFLYL | 0.587 ± 0.0065 |
| FGVTLGYFSSVE | 0.656 ± 0.017 |
| FGVVLAGAGWGG | 0.675 ± 0.095 |
| FGVVLVGAGWGG | 0.67 ± 0.035 |
| FGWVGYGCGVWW | 0.741 ± 0.12 |
| FHFLNLLIPFPR | 0.737 ± 0.061 |
| FHVVPLTSPPPV | 0.755 ± 0.03 |
| FHYSRSCVLEQL | 0.698 ± 0.074 |
| FICAGPLGVCSC | 0.498 ± 0.011 |
| FICGFRYHTVYR | 0.652 ± 0.043 |
| FIKRINSYTGWI | 0.663 ± 0.062 |
| FIQFGYVSSVIQ | 0.722 ± 0.031 |
| FISKHHPLVPPS | 0.719 ± 0.041 |
| FKQLKKKKKNRR | 0.741 ± 0.091 |
| FLARPIACPRRV | 0.701 ± 0.008 |
| FLCNSRSICGDG | 0.6774 ± 0.0033 |
| FLCRLILFSTPP | 0.602 ± 0.021 |
| FLFASYFLENQR | 0.766 ± 0.13 |
| FLFRLWGLLAEG | 0.583 ± 0.082 |
| FLGCFIPLPCTP | 0.645 ± 0.012 |

| Sequence | protein stability index |
| --- | --- |
| FLGFPVVGVFGS | 0.735 ± 0.031 |
| FLGRFLTGALWV | 0.758 ± 0.12 |
| FLLCFLRIPSCP | 0.5218 ± 0.0042 |
| FLLCISGFSSFL | 0.592 ± 0.0077 |
| FLLDRSSADHSL | 0.684 ± 0.1 |
| FLLFSSFYFCFP | 0.497 ± 0.062 |
| FLLPPAPRPAPP | 0.76 ± 0.086 |
| FLPFFFCLPSSL | 0.628 ± 0.014 |
| FLPRLSASSSLC | 0.728 ± 0.015 |
| FLQRSLTNMNSL | 0.671 ± 0.00095 |
| FLRGLCGKMSKG | 0.673 ± 0.0081 |
| FLRKHVLRLRPP | 0.594 ± 0.03 |
| FLSCLLERSWSL | 0.79 ± 0.044 |
| FLSLFCFFLPFF | 0.646 ± 0.02 |
| FLSPSLLSLSSP | 0.681 ± 0.025 |
| FLSSWFCYSSDL | 0.735 ± 0.07 |
| FLSWGSGVFGLL | 0.671 ± 0.056 |
| FLSWTAYRPSST | 0.682 ± 0.0075 |
| FLVWGLGWLCCV | 0.594 ± 0.025 |
| FNISVGPATRRV | 0.665 ± 0.045 |
| FNPPPLLLPPPP | 0.639 ± 0.013 |
| FPILLASRPSSP | 0.662 ± 0.046 |
| FPISPSQSQSLP | 0.724 ± 0.076 |
| FPIWYPSSSFPR | 0.711 ± 0.013 |
| FPLPHPCPPPPP | 0.694 ± 0.017 |
| FPLSPPAPPLTP | 0.702 ± 0.013 |

| Sequence | protein stability index |
| --- | --- |
| FPPAHPVHFSPP | 0.717 ± 0.047 |
| FPPCCSSFFGFF | 0.752 ± 0.024 |
| FPPCSFLARPFL | 0.669 ± 0.019 |
| FPPLLFSSPPLP | 0.683 ± 0.018 |
| FPPLSHLPPGLY | 0.758 ± 0.075 |
| FPPPPPPLPPGS | 0.687 ± 0.073 |
| FPPPPPSFSQPL | 0.741 ± 0.034 |
| FPPPPPSRSRPV | 0.708 ± 0.032 |
| FPPPRYPRRPTA | 0.682 ± 0.018 |
| FPRRPHVESHIR | 0.7359 ± 0.0042 |
| FPSSALPPRLSL | 0.7409 ± 0.0072 |
| FPSSSHLPWLLI | 0.633 ± 0.014 |
| FPTIGLSCSFPH | 0.676 ± 0.042 |
| FQGRLILCIETR | 0.5323 ± 0.00074 |
| FQWVLDGYRCWD | 0.694 ± 0.098 |
| FRAPYWCSRVFG | 0.715 ± 0.095 |
| FRGALFLLSSRV | 0.571 |
| FRGGCDRIRYRM | 0.696 ± 0.0089 |
| FRGGRTEWEKNV | 0.719 ± 0.058 |
| FRGSVRLIGFAQ | 0.666 ± 0.0081 |
| FRHPGSAGPPVA | 0.713 ± 0.011 |
| FRLLHLPALSCP | 0.565 ± 0.013 |
| FRLLSTINSCCV | 0.612 ± 0.036 |
| FRLYALAPHSPG | 0.67 ± 0.027 |
| FRPPFRSAPLSP | 0.679 ± 0.051 |
| FRQWCTEVYIEV | 0.531 ± 0.031 |

| Sequence | protein stability index |
| --- | --- |
| FRRSLILPLPPT | 0.6814 ± 0.0037 |
| FRRYGKEAVDKD | 0.696 ± 0.011 |
| FRSFALFGNSFL | 0.704 ± 0.0053 |
| FRYSSLPRPLVF | 0.5893 ± 0.0029 |
| FSGISVMCLFSG | 0.687 ± 0.12 |
| FSHLYCSLVTTD | 0.681 ± 0.067 |
| FSLFGVGQITFL | 0.683 ± 0.056 |
| FSLFSSPPSLFC | 0.672 ± 0.03 |
| FSLPLCAITGPQ | 0.702 ± 0.056 |
| FSPALPPSHSPP | 0.676 ± 0.057 |
| FSPAPPLLLHPS | 0.714 ± 0.043 |
| FSPASCPILPPL | 0.672 ± 0.014 |
| FSQNFVSTGFRL | 0.702 ± 0.028 |
| FSRPPPFPLFSS | 0.69 ± 0.03 |
| FSSCFLVSPSLF | 0.648 ± 0.016 |
| FSSFVLLFFSFP | 0.541 ± 0.011 |
| FSSPLLLFHLPV | 0.663 ± 0.04 |
| FSSSASNSSWPY | 0.721 ± 0.016 |
| FSTLLVSPLQAS | 0.641 ± 0.022 |
| FSTVIDFLAYLF | 0.636 ± 0.036 |
| FSWDRIKQCSSV | 0.7094 ± 0.0035 |
| FTFARPVCLFFG | 0.587 ± 0.003 |
| FTHVKEVNTGNR | 0.672 ± 0.053 |
| FTLCPARALSLC | 0.552 ± 0.024 |
| FTLRFGYISDLD | 0.736 ± 0.21 |
